± gives the standard deviation of the averaged measurements.
Test system: ATP
Experiment: switch fluorescence ratio, 500 uM ATP over buffer (Cy3 cluster intensity, sum of 5 cycles each) (fold (ratio)); higher = stronger signal-on switching upon ATP binding; sequences stand for … in TCGTCGGCAGCGTCAGATGTGTATAAGAGACAGTTTTTTTTTTTTTTTTTTTTTTTTT…TC
Conditions: aptamer strand: ATP DNA aptamer (quencher-CACCTGGGGGAGTATTGCGGAGGAAGG + anchor), 100 nM annealed; ATP concentration: 500 uM
Procedure, shortened: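 Switching-strand clusters labelled with Cy3 on a modified Illumina MiSeq flow-cell were annealed to 100 nM quencher-labelled ATP aptamer, imaged in selection buffer, and re-imaged after 15 min with 500 uM ATP at 22 °C. This was done over five cycles with NaOH stripping and re-annealing in between. The fluorescence ratio is summed target-cycle over summed buffer-cycle Cy3 intensity per cluster, averaged per switch-domain sequence, excluding clusters outside 100-1000 RFU.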
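Also: ATP exposure 15 min at 22 °C before imaging.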

Sequence	switch fluorescence ratio
CAGTTGGGAG	1.01 ± 0.029
TAATACTATG	1.05 ± 0.074
ATAATGGTTG	1.04 ± 0.043
TTTTTAGGTC	1.1 ± 0.21
GGGTTGTTTT	0.9944 ± 0.0082
GGGAATCATT	0.948 ± 0.034
TCGGAAGGGG	1.17 ± 0.3
CGTGCAGGGT	1.03 ± 0.052
TTTTTCATCC	1.18 ± 0.31
TGAGTGAATG	0.9787 ± 0.0042
GGGAAGACCG	0.9921 ± 0.004
AGAGGTATAC	0.969 ± 0.011
CCGTTTTTGT	0.9922 ± 0.006
GAGTGAGACT	1.02 ± 0.072
AAGAAGAACA	1.02 ± 0.02
GTCGAAGCCC	1.03 ± 0.022
TCGTAAAGAG	1.022 ± 0.0069
GATTTTGTTT	0.996 ± 0.027
ATGTAAAGAC	1.05 ± 0.04
TGATACATAA	1.028 ± 0.0097
CTAGAGGGGG	0.9711 ± 0.0094
AGTATTAGAG	0.983 ± 0.039
GAAGTAGAAA	0.9958 ± 0.0016
GACTGGAGGA	0.9851 ± 0.008
TCTTTGATGA	0.983 ± 0.051

Sequence	switch fluorescence ratio
CGAACTTGGA	0.9882 ± 0.0074
CTATGGGGTG	1.04 ± 0.04
ATTTGGAATT	1 ± 0.027
CGCGTCAACG	1.01 ± 0.027
TCGGTCAGTA	1.002 ± 0.0036
TTCCGGAGAT	1.43 ± 0.34
TCTTTGACGC	1.21 ± 0.013
CTCTGCGGTT	1.891 ± 0.0039
TTGGGTTAAC	0.9737 ± 0.006
TTTGTAGACG	1.04 ± 0.062
TTTCAAGGGC	1.04 ± 0.027
TGTCATCTAC	1.02 ± 0.016
TGCGACATGT	0.969 ± 0.027
ACGCATTACA	3.9 ± 1.6
TTATTTGCCT	1.17 ± 0.18
AGGGGACTTG	1.01 ± 0.06
ATGCTTGAAC	1.037 ± 0.0095
TTATAATAGT	1 ± 0.013
TTACAGTTAA	1.01 ± 0.021
TAGTTTAGGT	0.9964 ± 0.0051
TTGTGGTCCT	0.974 ± 0.029
AGCGGGAACG	1.005 ± 0.0013
TCATGGATTT	1.01 ± 0.026
AGAATGGAAC	0.976 ± 0.056
GGGAATCCTT	1.03 ± 0.0018

Sequence	switch fluorescence ratio
TAAAACGCTC	1.07 ± 0.073
TTGGGGAA	0.985 ± 0.025
ATTCCCAATT	1.04 ± 0.025
ACGCGCCTGG	1.05 ± 0.043
TTTGAGTGAT	1.01 ± 0.057
CGGGGGTACA	1.02 ± 0.019
GTCGGTATTA	0.984 ± 0.034
GGGAGGCTTC	1 ± 0.021
GTTGGTATGT	0.994 ± 0.018
TTGGAGTGTT	0.999 ± 0.026
TTAGGGGGCA	1.01 ± 0.03
CGCGGGAAAA	1.01 ± 0.099
TTCAAGTTGG	0.974 ± 0.024
TTAAGGAGCA	1.05 ± 0.044
GACTCAGAGG	1.03 ± 0.011
CGGGTGCAAG	1.03 ± 0.027
TTTGGGACGT	0.978 ± 0.03
GTAAAAGAAG	0.964 ± 0.02
AAGCCAAGTA	1 ± 0.023
GAGGCGGGGA	1.01 ± 0.03
TTAGTTATAC	1.78 ± 0.59
GACTTAGGAC	1.02 ± 0.021
TGGTTACATG	1.02 ± 0.014
GTGGCTAACT	1.04 ± 0.035
CAAAAAGTTT	1.05 ± 0.097

Sequence	switch fluorescence ratio
GGAAACTTTG	1.04 ± 0.11
AATTTGAGAA	0.998 ± 0.029
TTGGAATTTA	1 ± 0.016
GGCCGGATGG	0.991 ± 0.011
ACTTTCATGG	1.01 ± 0.018
CGGGGTTTGC	0.997 ± 0.015
AGGTTTGTTT	0.976 ± 0.0092
TGCAATGGGG	1.12 ± 0.07
TTGCGGGGTT	1.14 ± 0.15
CATTAAGGTT	0.996 ± 0.01
GAGCTTACGG	1.064 ± 0.01
TTCTAAGGTC	0.978 ± 0.036
TTAAGTAGGC	1.16 ± 0.19
ACCAGGTGGT	1.78 ± 1.1
TCGGTTGAAG	0.988 ± 0.017
TCGTAATGTG	1.03 ± 0.033
AATTTTGGTT	0.99 ± 0.017
TCTAGCCCTG	1.06 ± 0.073
GGGTCCCTTG	1 ± 0.026
ACCGCATCGT	1.21 ± 0.027
TAGAGCAGCT	1.03 ± 0.021
TCCCCCGCCG	1.09 ± 0.12
AAGTTGTTAT	0.986 ± 0.045
CAAGCTTAGG	0.995 ± 0.014
AAATGGGAGA	0.992 ± 0.026

Sequence	switch fluorescence ratio
TAACAGGGGG	0.995 ± 0.017
GTGATACACG	1.004 ± 0.0033
AGTGCAAGTG	0.972 ± 0.011
ATGGTATGGT	0.9855 ± 0.0081
CACATGGTCG	0.997 ± 0.02
ACGTGATTTT	1.09 ± 0.065
TTCTGAGAAT	1.042 ± 0.0044
ACCGATCTCA	1.048 ± 0.0089
TAGGGGTGGT	0.984 ± 0.032
TTCTGCTATC	1.79 ± 0.12
GTGATGTTGG	1.02 ± 0.029
GGTGTGAGTG	0.973 ± 0.025
CCTTGGGCTT	1.04 ± 0.031
ACAAGGGTC	0.964 ± 0.025
CTGTACAAGC	1.15 ± 0.03
TATCATCCGG	0.985 ± 0.032
TCAAATAGTT	0.997 ± 0.0026
GTGGGGAGTC	0.992 ± 0.015
AAGTATAGC	1.02 ± 0.044
TGGTTTTCTG	1.03 ± 0.051
TATATTTTGG	1.02 ± 0.074
GGCGGCGGGA	0.998 ± 0.027
TTGATCAGGG	0.989 ± 0.042
GAACAATGGG	0.977 ± 0.03
TACGCGGGGT	1.29 ± 0.45

Sequence	switch fluorescence ratio
AGGTAGTAAG	0.995 ± 0.031
AAGTAGATTG	1.003 ± 0.0081
CGATCCTATG	0.969 ± 0.045
GTGATAATGG	1.037 ± 0.0077
GGGATTTATG	1.01 ± 0.036
AAATATTGGT	1.01 ± 0.03
TGTTGGGTGT	1.01 ± 0.031
AAAGGCGTAT	1.008 ± 0.0036
AGGGGTGGTC	1.04 ± 0.017
GGGTCCTAAG	0.975 ± 0.038
AAGGTACCGG	1.01 ± 0.03
TGGGTTAACA	0.991 ± 0.018
ATGAGCGGCG	0.9917 ± 0.0012
TACATTTGGG	0.992 ± 0.021
TTATATCAGA	1.016 ± 0.0083
TGGGTGTTGG	1.01 ± 0.057
GTACCTGTCT	0.99 ± 0.017
AAGTTAGTTA	1.03 ± 0.02
TTTTAATGCG	1.04 ± 0.012
CAACTTGAAG	0.977 ± 0.02
ATAGATGTCT	0.992 ± 0.019
TAAGCATAAG	1.01 ± 0.027
ATGGTCGGTC	0.989 ± 0.036
GGGATCTAGG	0.974 ± 0.026
TTCCGAAAAT	1.01 ± 0.046

Sequence	switch fluorescence ratio
TTTTAGGTGA	1.07 ± 0.025
GTAGTAGCTT	1.017 ± 0.003
TATATGTGGC	1.07 ± 0.068
ACTACAGCTC	1.15 ± 0.021
AGGGGGAGGG	1.01 ± 0.03
ATGGAAAATG	1.04 ± 0.037
ATGGTTTTGT	0.959 ± 0.022
CAGGGAATAA	0.997 ± 0.011
CGTTTAAGGG	0.9819 ± 0.0074
TGGAGTTTTT	0.985 ± 0.032
GGCCCCGGGG	1.11 ± 0.069
GATACCTTTT	1.13 ± 0.24
GGATGGAAAG	0.999 ± 0.015
TACCATGGTT	0.9841 ± 0.0061
GGTAAACGCG	0.977 ± 0.016
TGTGAATCCA	0.976 ± 0.027
TTAATTATAT	1.02 ± 0.018
TTGGGAGGAT	1.12 ± 0.2
CCGTTGTGGT	1.05 ± 0.068
TTTACGTAGG	1 ± 0.024
CCTTTGGCAG	1.22 ± 0.06
ATGATTTCGT	0.9793 ± 0.0085
AGAAAAGAA	1 ± 0.036
TTAATCTACT	1.01 ± 0.015
GAAAAGTTTT	0.969 ± 0.018

Sequence	switch fluorescence ratio
TTGGGTCAGG	1.02 ± 0.028
CCGAAGGGTA	1.1 ± 0.022
GCGCAGACTT	1.15 ± 0.034
GGTGGATGGC	1 ± 0.013
TTTGCTGTTG	0.965 ± 0.037
TTTCCACCGA	1.14 ± 0.16
AGGTTGTGCT	0.9644 ± 0.009
TTTTTAAAAA	1.01 ± 0.059
GAGTTATTGT	0.9806 ± 0.0095
TTCGAAGGGT	1.09 ± 0.1
ACACTTTTCG	1.01 ± 0.035
TTAATAAACT	1.03 ± 0.051
TTAGTTTCTT	0.999 ± 0.017
GTGGGTATTA	1 ± 0.023
TATTGGTCAA	0.962 ± 0.017
GCGGGCTGAA	0.962 ± 0.014
ACGTGTTAAT	1.005 ± 0.0017
TATAGCAAGT	1.07 ± 0.034
TAAAGAATTT	0.98 ± 0.032
TTAGGGCTTA	0.995 ± 0.013
GTTGGCAGTG	0.978 ± 0.033
CCGCTCGGGG	1.05 ± 0.053
GAAAGGGTGT	1.03 ± 0.026
ATCCTCGTAA	2.44 ± 0.32
TAAGTGAGGT	0.99677 ± 0.00077
